Earlier results on one substance are cited in PMC12493190.

Series [1] deals with phospho-ubiquitin (Homo sapiens) (UniProt P0CG47).
Series [2] has as its target parkin pUbl Ubl (Homo sapiens) (UniProt O60260).

Chain of parkin RING0 (O60260 141-225): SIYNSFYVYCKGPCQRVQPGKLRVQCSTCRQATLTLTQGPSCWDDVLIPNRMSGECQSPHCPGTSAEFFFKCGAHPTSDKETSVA
Chain of parkin pUbl Ubl (Homo sapiens) (O60260 1-76): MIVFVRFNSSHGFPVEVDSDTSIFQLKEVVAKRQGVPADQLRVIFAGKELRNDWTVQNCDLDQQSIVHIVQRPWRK

For orientation: Kd means the free concentration of one partner at which half of the binding sites on the other are occupied at equilibrium, for simple one-to-one binding. In the case of parkin RING0 (from UniProt O60260), the Kd was 400 nM in series [1] and 1000 nM in series [2].
